From PMC11746035 (Frontiers in Immunology, 2024)

B1: BD56-595 N56 allelic variant (antibody, V domains shown)
VH: QITLKESGPTLVKPTQTLTLTCTFSGFSITTAGVGVGWIRQPPGKALEWLALIYWNGDRRYSPSLKNRVDITTDISKNQVVLTMTNMAPVDTATYYCAQHTIDMILDYWGQGTLVTVSS
VL: QSALTQPPSASGSPGQSVTISCTATSSDVGAYNYVSWYQQHPGKAPKLMIYEVNKRPSGVPDRFSGSKSGNTASLTVSGLQAEDEADYYCSSYTDNIVFGTGTRVTVL
notes: as the heavy chain of m12, with N56 in place of D56; numbers count on: IMGT unique numbering, excluding any gaps; as the light chain of m12; IgG1; also called N56 allele
B2: BD57-028 N56 allelic variant (antibody, V domains shown)
VH: QITLKESGPTLVKPTQTLTLTCTFSGFSLSASGEGMGWIRQPPGKALEWLALIYWNADERYSPSLRSRLTITKDTSKNQVVLKMTNMNPVDTATYYCAHHSITTVVDYWGQGMLVTVSS
VL: QSALTQPASVSGSPGQSITISCTGTISDVGAFNYVSWYQQHPGRAPKLIIYDVSTRPSGISIRFSGSKSGNTASLTISGLQPEDEADYYCSSYSHTSLVFGTGTKVTVL
notes: as the heavy chain of m8, with N56 in place of D56; numbers count on: IMGT unique numbering, excluding any gaps; as the light chain of m8; IgG1; also called N56 allele

Target: T1, SARS-CoV-2 BQ.1.1 RBD (SARS-CoV-2, Omicron BQ.1.1, L452R | K444T)
T1 construct: also called L452R RBD of BQ.1.1
Assay: BLI; antibody (IgG1, 11 μg/mL) loaded on AHC2 biosensor to about 1.5 nm; RBD in solution, association 300 s, dissociation 600 s; PBS-TB (PBS, 0.02% v/v Tween-20, 0.1% w/v BSA); 25°C; 1,000 rpm; binding response less than 0.1 considered non-binding
Settings: both partners purified

Binder	fold increase in binding affinity against the D56 variant [fold]
B1	57
B2	57
